Assay results taken from patent US20130130988A1.
Several values for one entry are separate records, joined by “and”; a condition that tells them apart may be missing. Equal values may be shown once.

Tests used:
[1] = target: galectin-1; experiment: microplate binding assay, complex adsorbed in wells, biotin-streptavidin visualisation; details: scale: µg of macromolecular complex per 10 ng of galectin-1
[2] = target: TLR-6; experiment: as above

| Substance | concentration at saturation [1] | concentration at saturation (µg of macromolecule per 10 ng of TLR6) [2] |
| --- | --- | --- |
| macromolecular complex of Bifidobacterium longum CBi0703 (CNCM I-3994), prepared according to example 1 (fermentation with pH regulated) | 20 and 10 | 10 and 20 |
| macromolecular complex of Bifidobacterium longum CBi0703 (CNCM I-3994), prepared according to example 2 (fermentation with pH not regulated) | 10 and 20 | 10 and 20 |
